The values that follow come from article PMC9832388, “A novel method for real-time analysis of the complement C3b:FH:FI complex reveals dominant negative CFI variants in age-related macular degeneration” (Frontiers in Immunology, 2022).

The experiment addresses C3b (UniProt P01024 23-667; P01024 749-1663). Briefly: cell-based or functional assay.

C3b, sequence (P01024 23-667, chain 1 of 2): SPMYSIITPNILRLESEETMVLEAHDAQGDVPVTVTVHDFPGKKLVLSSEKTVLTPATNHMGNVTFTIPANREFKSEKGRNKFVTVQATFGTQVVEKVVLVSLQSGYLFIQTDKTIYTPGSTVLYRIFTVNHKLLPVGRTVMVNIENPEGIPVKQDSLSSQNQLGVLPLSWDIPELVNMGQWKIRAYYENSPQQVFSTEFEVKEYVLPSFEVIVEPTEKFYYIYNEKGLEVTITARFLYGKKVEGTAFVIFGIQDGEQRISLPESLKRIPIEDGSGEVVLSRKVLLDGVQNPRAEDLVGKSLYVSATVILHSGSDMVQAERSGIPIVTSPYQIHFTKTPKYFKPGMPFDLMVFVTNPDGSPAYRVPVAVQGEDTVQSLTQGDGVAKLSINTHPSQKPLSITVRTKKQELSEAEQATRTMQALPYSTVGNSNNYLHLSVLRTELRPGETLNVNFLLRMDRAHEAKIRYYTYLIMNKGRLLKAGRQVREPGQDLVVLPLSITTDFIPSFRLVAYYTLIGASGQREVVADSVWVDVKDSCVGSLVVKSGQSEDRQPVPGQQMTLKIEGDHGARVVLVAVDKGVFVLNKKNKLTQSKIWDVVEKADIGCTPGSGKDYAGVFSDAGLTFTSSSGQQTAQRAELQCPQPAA
C3b, sequence (P01024 749-1663, chain 2 of 2): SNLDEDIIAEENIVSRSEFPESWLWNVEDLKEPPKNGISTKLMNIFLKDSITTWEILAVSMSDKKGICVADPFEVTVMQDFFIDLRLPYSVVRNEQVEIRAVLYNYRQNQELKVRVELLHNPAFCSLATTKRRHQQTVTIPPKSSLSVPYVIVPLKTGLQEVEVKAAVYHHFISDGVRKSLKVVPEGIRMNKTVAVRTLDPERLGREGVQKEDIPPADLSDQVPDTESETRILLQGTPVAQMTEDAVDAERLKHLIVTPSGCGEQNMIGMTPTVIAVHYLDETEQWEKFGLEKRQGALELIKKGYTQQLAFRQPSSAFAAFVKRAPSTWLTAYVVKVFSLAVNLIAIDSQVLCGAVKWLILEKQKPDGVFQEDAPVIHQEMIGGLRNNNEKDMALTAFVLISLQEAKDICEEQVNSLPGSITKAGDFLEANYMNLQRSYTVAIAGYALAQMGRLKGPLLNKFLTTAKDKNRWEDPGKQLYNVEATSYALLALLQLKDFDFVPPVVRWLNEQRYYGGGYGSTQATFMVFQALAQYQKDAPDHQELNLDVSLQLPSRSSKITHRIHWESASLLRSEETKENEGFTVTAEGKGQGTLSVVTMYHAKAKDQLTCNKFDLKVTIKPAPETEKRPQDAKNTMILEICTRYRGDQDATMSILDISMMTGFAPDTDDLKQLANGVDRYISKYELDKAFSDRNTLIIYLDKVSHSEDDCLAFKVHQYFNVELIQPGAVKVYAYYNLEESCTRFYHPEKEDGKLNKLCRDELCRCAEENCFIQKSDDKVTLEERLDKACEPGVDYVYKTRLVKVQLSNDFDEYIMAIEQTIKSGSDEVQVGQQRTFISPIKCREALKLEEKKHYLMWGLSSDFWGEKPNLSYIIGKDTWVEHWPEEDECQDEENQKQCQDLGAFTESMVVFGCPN

B1: I340T FI (enzyme, human)
chain 1: KVTYTSQEDLVEKKCLAKKYTHLSCDKVFCQPWQRCIEGTCVCKLPYQCPKNGTAVCATNRRSFPTYCQQKSLECLHPGTKFLNNGTCTAEGKFSVSLKHGNTDSEGIVEVKLVDQDKTMFICKSSWSMREANVACLDLGFQQGADTQRRFKLSDLSINSTECLHVHCRGLETSLAECTFTKRRTMGYQDFADVVCYTQKADSPMDDFFQCVNGKYISQMKACDGINDCGDQSDELCCKACQGKGFHCKSGVCIPSQYQCNGEVDCITGEDEVGCAGFASVTQEETEILTADMDAERRRIKSLLPKLSCGVKNRMHI
chain 2: TVGGKRAQLGDLPWQVAIKDASGITCGGIYIGGCWILTAAHCLRASKTHRYQIWTTVVDWIHPDLKRIVIEYVDRIIFHENYNAGTYQNDIALIEMKKDGNKKDCELPRSIPACVPWSPYLFQPNDTCIVSGWGREKDNERVFSLQWGEVKLISNCSKFYGNRFYEKEMECAGTYDGSIDACKGDSGGPLVCMDANNVTYVWGVVSWGENCGKPEFPGVYTKVANYFDWISYHVGRPFISQYNV
As for B1, the “inhibition of the activity of WT FI in a fluid phase CA assay with increasing I340T FI (~25% at equimolar, 30% at 2-fold molar)” value stood at 30%.
